Source: paper PMC12784347, “Structural insights into substrate binding, residue contributions, and catalytic mechanism of phosphopantetheine adenylyltransferase from Helicobacter pylori” (Bioscience Reports, 2025)

What was measured:
[1] = target: the molecule itself; test: crystal structure; HpPPAT:ATP; reservoir 17% PEG1000, 0.1 M citrate phosphate pH 4.2, 1.5 mM ATP, 0.2 M Li2SO4; space group P1, 12 copies in the asymmetric unit; 2.12 Å
[2] = target: the molecule itself; test: crystal structure; apo HpPPAT; hanging-drop vapor diffusion, 293K, protein 15 mg/ml in 20 mM Tris-HCl pH 7.9, 100 mM NaCl; reservoir 2.5 M NaCl, 0.1 M sodium acetate pH 4.5, 0.2 M Li2SO4; space group H3, two copies in the asymmetric unit; 1.98 Å
[3] = target: the molecule itself; test: crystal structure; HpPPAT P8A:dPCoA; reservoir 18% PEG550 MME, 0.2 M KF pH 7.4; space group P2(1)2(1)2, hexamer; 2.00 Å

B1: Helicobacter pylori phosphopantetheine adenylyltransferase, wild type (enzyme)
chain: MQKIGIYPGTFDPVTNGHIDIIHRSSELFEKLIVAVAHSSAKNPMFSLDERLKMIQLATKSFKNVECVAFEGLLANLAKEYHCKVLVRGLRVVSDFEYELQMGYANKSLNHELETLYFMPTLQNAFISSSIVRSIIAHKGDASHLVPKEIYPLISKA
notes: Phosphopantetheine adenylyltransferase (PPAT; EC 2.7.3.3) of Helicobacter pylori; each monomer in the crystal structures comprises 157 residues; also called HpPPAT; WT HpPPAT
[1]
  stoichiometry N: 12
[2]
  stoichiometry N: 2

B2: Helicobacter pylori phosphopantetheine adenylyltransferase P8A mutant (enzyme)
chain: MQKIGIYAGTFDPVTNGHIDIIHRSSELFEKLIVAVAHSSAKNPMFSLDERLKMIQLATKSFKNVECVAFEGLLANLAKEYHCKVLVRGLRVVSDFEYELQMGYANKSLNHELETLYFMPTLQNAFISSSIVRSIIAHKGDASHLVPKEIYPLISKA
notes: Phosphopantetheine adenylyltransferase (PPAT; EC 2.7.3.3) of Helicobacter pylori with Pro8 replaced by alanine; also called HpPPAT P8A; HpPPAT mutant P8A
[3]
  stoichiometry N: 6
